Experimental data reported in patent US20240058465A1 (SUTRO BIOPHARMA, published 2024).
Positions count from the first letter of the chain named. One block for each binder: values may come before it.

Tests used:
human ROR1 (hROR1) = molecular target: T1, human ROR1 (hROR1) (human, UniProt Q01973 30-937); assay: flow cytometry, HCT116-hROR1 cells
T1 construct: On HCT116-hROR1 transfectants, Mino cells or Ntera-2 cells, as the assay of each row says; also called receptor tyrosine kinase like orphan receptor 1
Procedure: A mix of ROR1 positive and negative cells was prepared as follows. Ror1 negative cells were washed 2× in PBS then incubated in PBS containing 1 nM CellTrace™ Oregon Green488® (Life Technologies) at 37° C. for 30 minutes. Cells were then washed 2× with RPMI w/10% fetal calf serum (or FCS), washed 2× with FACS buffer (PBS+0.5% BSA), suspended thoroughly in ice-cold FACS buffer at a final concentration of 4×10^6 cells/ml and kept on ice. ROR1 positive cells were washed 2× in PBS and suspended with ice-cold FACS buffer at 4×10^6 cells/ml. ROR1 positive and negative cells were then mixed to obtain a 1-1 cell suspension and seeded at 50 μl per well on 96 well polypropylene plates. 50 μl of 6-12 point dilutions of anti-ROR1 variants starting from concentrations of ˜100-200 nM antibody was dispensed using BioMekFX (Beckman Coulter) into each well. Cells were then incubated on ice for 1 hr, washed with FACS buffer and incubated for 1 hr on ice with 50 μl FACS buffer containing 2.5 μg/ml Alexa647-conjugated Goat Anti-Human IgG dispensed using BioMekFX (Beckman Coulter). Cells were then washed 2× with FACS buffer and fixed for 10 minutes in 200 μl PBS with 2% PFA prior to fluorescence detection. Samples were acquired using a Beckton Dickinson LSRII FACS. Mean Fluorescence Intensity of ROR1 antibody binding was analyzed using FlowJo® software (Tree Star, Inc.).

[1] = molecular target: T2, human ROR1 Frizzled domain (hROR1-Fz) (human, UniProt Q01973 165-305); assay: SPR Biacore, IgG on anti-Fc, ROR1-Fz analyte
T2 construct: Acro Biosystems, made in HEK293
Procedure: Anti-Fc polyclonal antibodies were immobilized onto a CMS chip (GE Life Sciences) using amine coupling chemistry (from Amine Coupling Kit, GE Life Sciences). The immobilization steps were carried out at a flow rate of 25 μL/min in 1×HBS-EP+buffer (GE Life Sciences; 10× Stock diluted before use). The sensor surfaces were activated for 7 min with a mixture of NHS (0.05 M) and EDC (0.2 M). The Anti-Fc antibodies were injected over all 4 flow cells at a concentration of 25 ug/ml in 10 mM sodium acetate, pH 4.5, for 7 min. Ethanolamine (1 M, pH 8.5) was injected for 7 min to block any remaining activated groups.
Off-rate and kinetic binding experiments were performed at 25° C. using 1×HBS-EP+buffer. Test and control antibodies were injected over the anti-Fc surface at concentrations of 5-10 μg/mL for 12 seconds at a flow rate of 10 μL/min on flow cells 2, 3 and 4, followed by a buffer wash for 30 seconds at the same flow rate. […] After capturing ligand (antibody) on the anti-Fc surface, the analyte (hROR1, Fz or Kr domains, Acro Biosystems, Delaware) was bound for 180 seconds, followed by a 600 second dissociation phase at a flow rate of 50 μL/min. Between each ligand capture and analyte binding cycle, regeneration was carried out using 2 injections of 10 mM Glycine pH 2.0 for 30 seconds at 30 μL/min, followed by a 30 second buffer wash step.

B2: SRP2196-A01 (antibody, V domains shown)
VH: EVQLVESGGGLVQPGGSLRLSCAASGFNITGYYIHWVRQAPGKGLEWVGQISPNSGYTYYADSVKGRFTISADTSKNTAYLQMNSLRAEDTAVYYCARDSRRYVRGWDYWGQGTLVTVSS
VL: QAVVTQESALTTSPGETVTLTCRSSTGAVTTSNYANWVQEKPDHLFTGLIGGTNKRAPGVPARFSGSLIGDKAALTITGAQTEDEAIYFCALWYSNLWVFGGGTKLTVL
notes: His/FLAG-tagged IgG1
- Bmax (MFI) (human ROR1 (hROR1)): 15800 MFI
- Kd (human ROR1 (hROR1)): 300 pM

B3: SRP2196-B05 (antibody, V domains shown)
VH: B2 VH with Y57A, Y60H
VL: B2 VL
notes: His/FLAG-tagged IgG1
- Bmax (MFI) (human ROR1 (hROR1)): 14800 MFI
- Kd (human ROR1 (hROR1)): 200 pM

B5: SRP2194-A03 (antibody, IgG1, V domains shown)
VH: B2 VH with S17P, Q50Y, S52T, Y57T, Y60S, G106P, W107L
VL: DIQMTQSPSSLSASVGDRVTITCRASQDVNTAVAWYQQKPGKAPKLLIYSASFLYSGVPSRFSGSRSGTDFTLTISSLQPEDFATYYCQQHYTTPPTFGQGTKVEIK
notes: His/FLAG-tagged IgG1, cell-free
- Bmax (MFI) (human ROR1 (hROR1)): 7610 MFI
- Kd (human ROR1 (hROR1)): 5350 pM

B6: SRP2194-A06 (antibody, IgG1, V domains shown)
VH: B2 VH with G31D, Q50Y, N54L, S55A, Y57N, Y60H, T69P, G106P, W107F
VL: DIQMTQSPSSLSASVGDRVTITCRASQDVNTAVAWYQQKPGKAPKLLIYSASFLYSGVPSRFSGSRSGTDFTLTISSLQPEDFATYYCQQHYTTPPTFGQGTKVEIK
notes: as for B5
- Bmax (MFI) (human ROR1 (hROR1)): 9050 MFI
- Kd (human ROR1 (hROR1)): 490 pM
- Kd [1]: 3750 pM
- koff [1]: 0.00193 s⁻¹
- kon [1]: 516000 M⁻¹ s⁻¹

B9: SRP2194-B03 (antibody, IgG1, V domains shown)
VH: B2 VH with G31S, Q50Y, N54L, S55A, Y57N, Y60H, G106P, W107F
VL: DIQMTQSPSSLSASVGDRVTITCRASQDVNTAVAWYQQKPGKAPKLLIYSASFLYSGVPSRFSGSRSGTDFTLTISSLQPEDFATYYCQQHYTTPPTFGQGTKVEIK
notes: as for B5
- Bmax (MFI) (human ROR1 (hROR1)): 9480 MFI
- Kd (human ROR1 (hROR1)): 180 pM
- Kd [1]: 1420 pM
- koff [1]: 0.000295 s⁻¹
- kon [1]: 207000 M⁻¹ s⁻¹

B10: SRP2194-A07 (antibody, IgG1, V domains shown)
VH: B2 VH with I29F, G31D, Q50Y, N54L, S55A, Y57N, Y60H, G106P, W107F
VL: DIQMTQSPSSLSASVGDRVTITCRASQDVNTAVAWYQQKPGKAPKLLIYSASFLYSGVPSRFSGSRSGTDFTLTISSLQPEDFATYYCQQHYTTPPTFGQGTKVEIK
notes: as for B5
- Bmax (MFI) (human ROR1 (hROR1)): 8770 MFI
- Kd (human ROR1 (hROR1)): 410 pM
- Kd [1]: 1610 pM
- koff [1]: 0.000275 s⁻¹
- kon [1]: 171000 M⁻¹ s⁻¹

B13: SRP2194-A08 (antibody, IgG1, V domains shown)
VH: B2 VH with Y33H, Q50Y, S52A, N54S, Y60D, G106P, W107F
VL: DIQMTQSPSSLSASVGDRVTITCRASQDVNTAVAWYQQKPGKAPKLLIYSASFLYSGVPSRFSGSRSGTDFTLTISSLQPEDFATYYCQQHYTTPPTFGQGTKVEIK
notes: as for B5
- Bmax (MFI) (human ROR1 (hROR1)): 8250 MFI
- Kd (human ROR1 (hROR1)): 300 pM

B15: SRP2196-A02 (antibody, V domains shown)
VH: B2 VH with Y57A, Y59H, Y60D
VL: B2 VL
notes: His/FLAG-tagged IgG1
- Bmax (MFI) (human ROR1 (hROR1)): 15200 MFI
- Kd (human ROR1 (hROR1)): 200 pM

Now those with a lower Kd (human ROR1 (hROR1)), led by results:

- Bmax (MFI) (human ROR1 (hROR1)): 9010 MFI
- Kd (human ROR1 (hROR1)): 120 pM
- Kd [1]: 1070 pM
- koff [1]: 0.000325 s⁻¹
- kon [1]: 304000 M⁻¹ s⁻¹
B1: SRP2194-A01 (antibody, IgG1, V domains shown)
VH: B2 VH with Q50Y, N54L, S55A, Y57N, Y60H, T69N, G106P, W107M
VL: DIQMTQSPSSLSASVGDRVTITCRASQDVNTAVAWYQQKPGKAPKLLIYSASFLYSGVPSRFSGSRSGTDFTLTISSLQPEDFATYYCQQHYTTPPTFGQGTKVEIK
notes: as for B5

- Bmax (MFI) (human ROR1 (hROR1)): 9050 MFI
- Kd (human ROR1 (hROR1)): 160 pM
- Kd [1]: 1840 pM
- koff [1]: 0.000364 s⁻¹
- kon [1]: 198000 M⁻¹ s⁻¹
B4: SRP2194-A04 (antibody, IgG1, V domains shown)
VH: B2 VH with Q50Y, N54L, S55A, Y57N, Y59H, Y60H, G106P, W107L
VL: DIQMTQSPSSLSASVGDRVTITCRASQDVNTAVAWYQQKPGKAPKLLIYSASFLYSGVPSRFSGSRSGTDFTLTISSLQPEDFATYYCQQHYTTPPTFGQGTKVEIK
notes: as for B5

- Bmax (MFI) (human ROR1 (hROR1)): 9330 MFI
- Kd (human ROR1 (hROR1)): 150 pM
- Kd [1]: 2770 pM
- koff [1]: 0.00071 s⁻¹
- kon [1]: 256000 M⁻¹ s⁻¹
B7: SRP2194-B02 (antibody, IgG1, V domains shown)
VH: B2 VH with T30S, A40T, Q50Y, N54L, S55A, Y57N, Y60H, G106P, W107L
VL: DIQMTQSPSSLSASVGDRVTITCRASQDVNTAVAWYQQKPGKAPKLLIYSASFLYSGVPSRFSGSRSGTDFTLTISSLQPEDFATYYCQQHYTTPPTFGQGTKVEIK
notes: as for B5

- Bmax (MFI) (human ROR1 (hROR1)): 8660 MFI
- Kd (human ROR1 (hROR1)): 100 pM
B8: SRP2194-A11 (antibody, IgG1, V domains shown)
VH: B2 VH with G31Q, Q50Y, Y59T, Y60D, G106P, W107F
VL: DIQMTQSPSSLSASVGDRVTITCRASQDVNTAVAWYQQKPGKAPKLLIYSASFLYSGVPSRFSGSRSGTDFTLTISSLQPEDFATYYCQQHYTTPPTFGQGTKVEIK
notes: His/FLAG-tagged IgG1, cell-free; also called Antibody 135

- Bmax (MFI) (human ROR1 (hROR1)): 8250 MFI
- Kd (human ROR1 (hROR1)): 160 pM
B11: SRP2194-A10 (antibody, IgG1, V domains shown)
VH: B2 VH with G31Q, G42A, Q50Y, Y57S, Y59H, Y60I, G106P, W107F, G113S
VL: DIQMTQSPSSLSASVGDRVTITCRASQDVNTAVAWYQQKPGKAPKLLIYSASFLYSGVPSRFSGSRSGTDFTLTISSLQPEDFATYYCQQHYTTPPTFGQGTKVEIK
notes: as for B5

- Bmax (MFI) (human ROR1 (hROR1)): 8240 MFI
- Kd (human ROR1 (hROR1)): 130 pM
B12: SRP2194-A09 (antibody, IgG1, V domains shown)
VH: B2 VH with Q50Y, S52T, N54L, Y57A, Y60R, G106P, W107F
VL: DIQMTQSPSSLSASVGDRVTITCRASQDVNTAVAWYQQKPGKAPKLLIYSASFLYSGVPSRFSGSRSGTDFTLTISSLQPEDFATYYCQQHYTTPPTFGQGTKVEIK
notes: His/FLAG-tagged IgG1, cell-free; also called Antibody 130

- Bmax (MFI) (human ROR1 (hROR1)): 8860 MFI
- Kd (human ROR1 (hROR1)): 140 pM
- Kd [1]: 3120 pM
- koff [1]: 0.000857 s⁻¹
- kon [1]: 274000 M⁻¹ s⁻¹
B14: SRP2194-B01 (antibody, IgG1, V domains shown)
VH: B2 VH with T30A, G31S, Q50Y, N54L, S55A, Y57N, Y60H, G106P, W107F
VL: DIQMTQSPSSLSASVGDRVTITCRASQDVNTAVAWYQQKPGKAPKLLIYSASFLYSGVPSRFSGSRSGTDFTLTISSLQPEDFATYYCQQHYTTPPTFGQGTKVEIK
notes: His/FLAG-tagged IgG1, cell-free; also called Antibody 140
